Reference: US20250313611A1

Tests used:
[1] = target: recombinant human FcRn/FCGRT-B2M heterodimer protein (human) (UniProt P55899); assay: SPR Biacore 8K+, antibody on CM5 chip, FcRn in solution, pH 6.0
[2] = target: recombinant human FcRn/FCGRT-B2M heterodimer protein (human) (UniProt P55899); assay: SPR, steady state affinity, pH 6.0
[3] = target: recombinant stabilized SARS-COV-1 Spike protein ([change], with foldon) (SARS-CoV-1) (UniProt P59594); assay: ELISA, coated antigen, dilution series, OD450 [3/3]
[4] = target: SARS-COV-2 RBD (His-tagged, Sinobiologicals) (SARS-CoV-2 (Wuhan)) (UniProt P0DTC2); assay: as above
[5] = target: recombinant prefusion-stabilized SARS-COV-2 spike protein S-6P (SARS-CoV-2 (Wuhan)) (UniProt P0DTC2); assay: as above

Sequence of recombinant human FcRn/FCGRT-B2M heterodimer protein (human) (P55899 24-297 limits assumed, chain 1 of 2): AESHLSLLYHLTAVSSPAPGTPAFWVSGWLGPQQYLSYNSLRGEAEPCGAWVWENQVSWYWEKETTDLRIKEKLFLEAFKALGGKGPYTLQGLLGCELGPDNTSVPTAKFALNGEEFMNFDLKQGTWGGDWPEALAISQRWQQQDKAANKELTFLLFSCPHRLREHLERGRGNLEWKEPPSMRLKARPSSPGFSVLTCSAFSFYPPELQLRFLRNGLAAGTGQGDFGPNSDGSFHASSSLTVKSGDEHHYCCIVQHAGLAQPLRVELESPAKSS
Sequence of recombinant human FcRn/FCGRT-B2M heterodimer protein (human) (P61769 21-119 limits assumed, chain 2 of 2, further chain): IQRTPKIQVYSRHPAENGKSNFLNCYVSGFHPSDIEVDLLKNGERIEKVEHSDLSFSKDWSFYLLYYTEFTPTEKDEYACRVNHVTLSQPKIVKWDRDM

## human IgG1 isotype control antibody
[1]
  RUmax (steady state affinity, pH 6.0): 37.5 RU
[2]
  Kd: 15 nM

## S309 monoclonal antibody
[3]
  EC50 (read off the curve): 0.04 µg/mL
[4]
  EC50 (read off the curve): 0.1 µg/mL
[5]
  EC50 (read off the curve): 0.09 µg/mL

## Bebtelovimab Biosimilar (PX-TA1750) (antibody)
[1]
  RUmax (steady state affinity, pH 6.0): 57.1 RU
[2]
  Kd: 19.4 nM
